Data: patent US20160136231A1

Biological target: mouse ChemR23, PathHunter β-Arrestin cell line (mouse) (UniProt P97468)
Assay: cell-based or functional assay

Chain of mouse ChemR23, PathHunter β-Arrestin cell line (mouse) (P97468 whole entry): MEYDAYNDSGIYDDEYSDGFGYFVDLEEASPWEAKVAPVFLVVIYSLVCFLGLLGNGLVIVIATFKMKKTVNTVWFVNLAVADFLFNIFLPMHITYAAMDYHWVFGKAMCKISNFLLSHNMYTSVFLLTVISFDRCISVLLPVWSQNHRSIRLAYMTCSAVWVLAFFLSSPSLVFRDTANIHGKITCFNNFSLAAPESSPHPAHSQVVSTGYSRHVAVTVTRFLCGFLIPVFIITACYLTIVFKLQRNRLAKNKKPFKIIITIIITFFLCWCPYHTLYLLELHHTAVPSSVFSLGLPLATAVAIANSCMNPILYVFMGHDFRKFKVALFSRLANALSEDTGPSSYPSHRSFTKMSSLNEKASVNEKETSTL

- EC50, Arrestin, Agonist (RC50, uM): 0.00154 µM
Substance: hrChemerin (from UniProt Q99969 21-157) (ligand)
